Reference: paper PMC3098231

B1: Motif Ia rank 3 hairpin (structured_DNA)
DNA: ACACGCGCATGCGGTTGGTGTGGTTTGGCATGCGCCACA
modifications: 3'-thiol for SPR
B2: Motif Ia rank 9 hairpin (structured_DNA)
DNA: ACACGCGCATGCGGTTGGTTTGGTTGGGCATGCGCCACA
modifications: 3'-thiol for SPR
B3: Motif Ia rank 25 hairpin (structured_DNA)
DNA: ACACGCGCATGCGGTTGGTGCGGTTGGGCATGCGCCACA
modifications: 3'-thiol for SPR

What follows are binders tested against human alpha-thrombin (Homo sapiens, UniProt P00734;P00734 328-363;364-622) (assay: SPR imaging (k-1/k1); 50 nM thrombin; 20 mM Tris-HCl pH 7.4, 140 mM NaCl, 5 mM KCl, 1 mM CaCl2, 1 mM MgCl2; SPR at 25 C; EMSA in the same selection buffer, 14% native PAGE in 1X Tris-glycine at 4 C).

Point of comparison: B1, Kd 170 nM. Against it:
- B2 — 3.8-fold higher, 650 nM
- B3 — 13-fold higher, 2200 nM
